We go through two molecules from patent US20160289698A1 (TRUSTEES OF DARTMOUTH COLLEGE, published 2016).

Test [1] has as its target T1, ARR20 (type-B ARR subfamily-3) (Arabidopsis, UniProt Q9LZJ8 1-426, limits assumed).
T1 sequence (looked up): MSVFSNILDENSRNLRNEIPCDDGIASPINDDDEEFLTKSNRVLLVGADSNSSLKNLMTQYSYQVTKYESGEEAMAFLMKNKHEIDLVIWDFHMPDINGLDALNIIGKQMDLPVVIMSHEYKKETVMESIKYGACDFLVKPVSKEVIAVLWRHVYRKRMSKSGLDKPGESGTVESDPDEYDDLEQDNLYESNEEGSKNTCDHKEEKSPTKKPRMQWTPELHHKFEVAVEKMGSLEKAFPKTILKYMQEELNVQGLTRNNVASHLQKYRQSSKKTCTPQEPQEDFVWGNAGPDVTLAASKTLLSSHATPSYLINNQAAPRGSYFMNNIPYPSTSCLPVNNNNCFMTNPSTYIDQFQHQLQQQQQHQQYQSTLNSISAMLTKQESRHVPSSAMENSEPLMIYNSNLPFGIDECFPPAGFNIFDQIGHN
Briefly: yeast two-hybrid (LexA-KMD bait, B42-ARR prey, X-gal). The method, boiled down: (§1)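 LexA DNA-binding-domain KMD bait fusions (pGilda) and B42 activation-domain type-B ARR prey fusions (pJG4-5) were co-transformed into yeast EGY48 carrying the lacZ reporter plasmid pSH18-34. Interaction was scored by colour on X-gal medium.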

The target in another test is T2, ARR21 (subfamily-3) (Arabidopsis, UniProt Q9LYP5 1-613, limits assumed).
T2 sequence (looked up): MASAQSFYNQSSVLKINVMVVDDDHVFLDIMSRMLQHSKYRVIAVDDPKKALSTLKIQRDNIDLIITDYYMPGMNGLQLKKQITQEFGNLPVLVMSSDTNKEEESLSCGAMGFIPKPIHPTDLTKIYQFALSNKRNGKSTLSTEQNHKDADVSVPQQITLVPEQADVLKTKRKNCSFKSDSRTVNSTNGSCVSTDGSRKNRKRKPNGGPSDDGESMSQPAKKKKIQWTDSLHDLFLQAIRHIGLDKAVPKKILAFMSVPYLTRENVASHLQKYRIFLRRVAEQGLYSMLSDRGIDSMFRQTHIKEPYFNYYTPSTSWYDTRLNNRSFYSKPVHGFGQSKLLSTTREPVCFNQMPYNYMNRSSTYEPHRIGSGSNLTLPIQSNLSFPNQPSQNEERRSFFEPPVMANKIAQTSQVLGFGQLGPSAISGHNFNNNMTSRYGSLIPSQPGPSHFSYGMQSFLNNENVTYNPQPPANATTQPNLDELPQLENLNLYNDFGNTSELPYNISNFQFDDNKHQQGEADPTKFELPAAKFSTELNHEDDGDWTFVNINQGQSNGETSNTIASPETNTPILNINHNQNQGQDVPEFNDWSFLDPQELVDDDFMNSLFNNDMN
The test is described as above. In short, it runs like this:
as §1

A further test deals with T3, ARR12 (133-596) (Arabidopsis, UniProt P62598 133-596).
T3 construct: range 133-596; Fused to a YFP fragment for BiFC; also called C-terminal domain of ARR12
T3 sequence (looked up): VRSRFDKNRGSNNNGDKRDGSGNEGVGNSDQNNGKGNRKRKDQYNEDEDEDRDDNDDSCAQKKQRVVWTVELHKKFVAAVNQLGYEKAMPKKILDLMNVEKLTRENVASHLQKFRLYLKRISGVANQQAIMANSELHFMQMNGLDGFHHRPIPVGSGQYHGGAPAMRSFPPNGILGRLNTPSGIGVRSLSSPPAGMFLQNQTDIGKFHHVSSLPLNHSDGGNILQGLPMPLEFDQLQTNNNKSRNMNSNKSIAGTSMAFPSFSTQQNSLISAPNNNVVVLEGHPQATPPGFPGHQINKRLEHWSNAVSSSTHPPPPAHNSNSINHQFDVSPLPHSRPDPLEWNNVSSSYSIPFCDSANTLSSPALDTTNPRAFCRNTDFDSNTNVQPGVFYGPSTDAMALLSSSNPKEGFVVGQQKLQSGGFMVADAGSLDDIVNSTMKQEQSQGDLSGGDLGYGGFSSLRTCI
Briefly: BiFC with ARR fragments.

B1: KISS ME DEADLY 2 (KMD2) (other, Arabidopsis, UniProt Q9LMR5 1-359, looked up)
chain: MELIPDLPETVAYECLLRSSYKQFPLMASVCKLWQREISLSDFFRHRKASGHSQELVVLSQARVDPVKELVSGNKTIPTPVYRISVLELGTGLRSELPPVPGHSNGLPLFCRLVSVGSDLVVLCGLDPVTWRTSDSVFVFSFLTSTWRVGKSMPGGPRSFFACASDSQRNVFVAGGHDEDKNAMMSALVYDVAEDRWAFLPDMGRERDECTAIFHAGKFHVIGGYSTEEQGQFSKTAESFDVTTWRWSPQGEEFLSSEMTMWPPICAAGENGDLYACCRRDLMMMKDDTWYKVGNLPADVCNVSYVAIRRSGNLVVIGSARYGEPSVGYNWDMSNSRWLKLETHDKYEGHVQAGCFLEI
notes: Full-length protein; LexA fusion in yeast two-hybrid, YFP^N or YFP^C fusion in BiFC; also called At1g15670
Regarding B1, the binding result in test [1] is “binds”; with ARR21 (subfamily-3), “no binding”.

B2: KISS ME DEADLY 1 (KMD1) (other, Arabidopsis, UniProt Q9M8L2 1-354, looked up)
chain: MELIPNLPDDVARECLLRSSYQQFPVIASVCRAWNREVSLSQFLHQRKASRHSQELLILSQARVDPAGSGKIIATPEYRISVLESGSGLWTELPPIPGQTKGLPLFCRLVSVGSDLIVLGGLDPITWQAHDSVFVFSFLTSKWRVGATMPGVRRSFFGCASDSDRTVLVAGGHNEEKCALTSAMVYDVSEDKWTFLPDMARERDECKAVFHAGRFHVIGGYATEEQGQFSKTAESFDVSTWEWGPLTEDFLDDTGDTVSPPTCVAGGDLYACWGGDVMMFLNDKWQKVGQIPADVYNVTYVAVRPGMLIVIGNGKALAGYGEATVGYICDLSSSRWVKLETHGGHVQAGCFLEV
notes: Full-length protein; also called At1g80440
As to B2, the binding result in the test with ARR12 (133-596) was “binds”; in test [1], “binds”; with ARR21 (subfamily-3), “no binding”.
